Measurements as given in PMC10816986, “The Role of Key Amino Acids of the Human Fe(II)/2OG-Dependent Dioxygenase ALKBH3 in Structural Dynamics and Repair Activity toward Methylated DNA” (International Journal of Molecular Sciences, 2024).

System: m3C_FRET substrate (m3C-containing DNA)
Test: Stopped-flow FRET pre-steady-state kinetics of m3C DNA demethylation
Assay type: biochemical
Settings: for k1 × 10^−6 / k2 / k3 / kr (irreversible step of substrate hydroxylation) / k−1 / k−2 / k−3 / Kd: global fitting of SF data to Scheme 1; for Kd: read-out: Kd^Product (equilibrium dissociation constant of the enzyme–product complex); for Ka = K1 + K1 × K2 + K1 × K2 × K3: overall affinity for damaged DNA, Ki = ki/k−i
Source text: In previous research, we employed a stopped-flow (SF) method to detect conformational changes in the dioxygenases AlkB and ALKBH2, as well as their substrates, throughout the catalytic cycle. The SF technique provides excellent opportunities for studying the conformational dynamics of protein–nucleic acid complexes under pre-steady-state conditions within the millisecond time range. Conformational transitions are typically detected by measuring the fluorescent signal from the tryptophan residues of the enzyme or fluorescent labels incorporated into the DNA substrate sequence. […] It should be noted that another common approach to detecting conformational dynamics based on measurement of the intrinsic Trp fluorescence of ALKBH3 was unsuccessful due to a low signal-to-noise ratio. The time-dependent FRET signal profiles following rapid (1 ms) mixing of equimolar amounts of enzyme and the m3C_FRET substrate in the presence of Fe(II) and 2OG ligands were obtained under near single-turnover conditions (Figure 3). […] In the case of the wt protein, the initial stage of the enzyme–substrate interaction was accompanied by a slight increase in the FRET signal between 20 ms and 2 s. Subsequently, from 10 s to 250 s, a significant quenching of fluorescence occurs, followed by stabilization at a constant level. The kinetic curve obtained for the Y143F mutant was similar to wt ALKBH3, except that the phase of decrease in the signal was shifted towards longer time scales (20–600 s).
For wt and Y143F ALKBH3, a series of SF traces were recorded across a range of m3C substrate concentrations from 0.5 to 4.0 µM (Figure 4). […] Additionally, a slight increase in signal, absent in the native protein, is discernible in the initial segment (1–5 ms) of the curves for Y143F ALKBH3, most likely indicative of the primary enzyme–substrate binding.
Table 1 summarizes the values of the rate constants describing the forward and reverse reactions of the mechanism, as well as the equilibrium dissociation constant of the enzyme–product complex. […] Subsequent isomerization of the enzyme–substrate complex is characterized by two equilibrium steps, which occur at half the rate in wt ALKBH3, yet with greater efficiency than for the Y143F protein. To assess the overall affinity of ALKBH3’s active site for damaged DNA, the equilibrium constant Ka = K1 + K1 × K2 + K1 × K2 × K3, where Ki = ki/k−i, was determined. […] In contrast, the rate of the step of irreversible hydroxylation of the methyl group by the native protein (kr^wt = 0.023 s^−1) is nearly twice as fast as that of the Y143F mutant (kr^Y143F = 0.013 s^−1). Furthermore, the equilibrium dissociation constant of the enzyme–product complex (Kd^Product) is almost an order of magnitude higher for wt ALKBH3. […] The substitution of Tyr143 with Phe leads to a reduction in the rate and efficiency of demethylation of the m3C substrate, likely due to perturbations in the structure of the catalytically competent complex and strong product binding, which complicates the enzyme’s transition to the next turnover.
Figure 3 Time courses of the FRET signal generated by the FAM/BHQ1 pair under interactions of wt, Y143F, Y143A, L177A, and H191A ALKBH3 with m3C-containing DNA. The fluorescence traces represent changes in the FRET signal after rapid mixing of 1.5 µM m3C_FRET substrate with 1.5 µM protein in the presence of 40 µM Fe(II) and 1 mM 2OG. Each curve was collected in a split mode within four time intervals (up to 0.1, 1, 50, and 500 or 1000 s) in 4–5 replicates.
Figure 4 Pre-steady-state kinetics of m3C-containing DNA demethylation by wt (A) and Y143F (B) ALKBH3 proteins.

Molecule	k1 (formation of the primary enzyme–substrate complex) [M⁻¹ s⁻¹]	k1 × 10^−6 [M^−1 s^−1]	k2 [s⁻¹]	k3 [s⁻¹]	kr (irreversible step of substrate hydroxylation) [s⁻¹]	k−1 [s⁻¹]	k−2 [s⁻¹]	k−3 [s⁻¹]	kr (irreversible step of substrate hydroxylation) (listed as wt) [s⁻¹]	Kd [nM]	Ka = K1 + K1 × K2 + K1 × K2 × K3	kr (irreversible step of substrate hydroxylation) (listed as Y143F) [s⁻¹]
wt ALKBH3: wild-type human Fe(II)/2OG-dependent dioxygenase ALKBH3 with N-terminal His-tag, expressed in E. coli (protein, UniProt Q96Q83 1-286, looked up, N-terminal His-tag, wild-type human Fe(II)/2OG-dependent dioxygenase ALKBH3 with N-terminal His-tag, expressed in E. coli) Alpha-ketoglutarate-dependent …: MEEKRRRARVQGAWAAPVKSQAIAQPATTAKSHLHQKPGQTWKNKEHHLSDREFVFKEPQQVVRRAPEPRVIDREGVYEISLSPTGVSRVCLYPGFVDVKEADWILEQLCQDVPWKQRTGIREDITYQQPRLTAWYGELPYTYSRITMEPNPHWHPVLRTLKNRIEENTGHTFNSLLCNLYRNEKDSVDWHSDDEPSLGRCPIIASLSFGATRTFEMRKKPPPEENGDYTYVERVKIPLDHGTLLIMEGATQADWQHRVPKEYHSREPRVNLTFRTVYPDPRGAPW	9.4e+07	19 ± 3	2.9 ± 0.9	0.57 ± 0.12	0.023 ± 0.003	64 ± 5	2.8 ± 0.5	0.13 ± 0.01	0.023	720	(1.9 ± 0.2) × 10^6 M^−1	–
Y143F ALKBH3: ALKBH3 mutant, Tyr143 replaced with Phe (protein, UniProt Q96Q83 1-286, looked up, variant Y143F) Alpha-ketoglutarate-dependent …: MEEKRRRARVQGAWAAPVKSQAIAQPATTAKSHLHQKPGQTWKNKEHHLSDREFVFKEPQQVVRRAPEPRVIDREGVYEISLSPTGVSRVCLYPGFVDVKEADWILEQLCQDVPWKQRTGIREDITYQQPRLTAWYGELPYTFSRITMEPNPHWHPVLRTLKNRIEENTGHTFNSLLCNLYRNEKDSVDWHSDDEPSLGRCPIIASLSFGATRTFEMRKKPPPEENGDYTYVERVKIPLDHGTLLIMEGATQADWQHRVPKEYHSREPRVNLTFRTVYPDPRGAPW	1.9e+07	94 ± 3	6.1 ± 1.4	1.4 ± 0.1	0.013 ± 0.001	270 ± 26	7.7 ± 0.24	0.48 ± 0.03	–	83	(1.4 ± 0.1) × 10^6 M^−1	0.013
